Results published in patent publication US20080096187A1.

Tests used:
Experiment in all cases: cell-based or functional assay
[1] = target: HIV-2 7312A envelope glycoprotein (HIV-2 isolate 7312A)
[2] = target: HIV-2 UC-1 envelope glycoprotein (HIV-2 UC1) (UniProt Q76638)
[3] = target: HIV-2 7312A/V434M envelope glycoprotein (HIV-2 isolate 7312A)
[4] = target: HIV-2 7312A/H419R envelope glycoprotein (HIV-2 isolate 7312A)
[5] = target: HIV-2 7312A/Q422L envelope glycoprotein (HIV-2 isolate 7312A)
[6] = target: HIV-1 YU2 envelope glycoprotein (HIV-1 YU2) (UniProt P35961)
[7] = target: HIV-2 7312A envelope glycoprotein with substitutions 660 (K to A), 662 (N to D), 663 (S to K) and 665 (D to A) (HIV-2 isolate 7312A)
[8] = target: HIV-2 ST envelope glycoprotein (HIV-2 ST) (UniProt P20872)
[9] = target: HIV-2 7312A envelope glycoprotein with substitutions 675 (L to I) and 676 (A to T) (HIV-2 isolate 7312A)

Row | Substance | IC50 (neutralization) in the absence of sCD4 [1] | IC50 (neutralization) in the presence of sCD4 [1] | IC50 (neutralization) in the absence of sCD4 [2] | IC50 (neutralization) in the presence of sCD4 [2] | IC50 (neutralization) in the absence of sCD4 [3] | IC50 (neutralization) in the presence of sCD4 [3] | IC50 (neutralization) in the absence of sCD4 [4] | IC50 (neutralization) in the presence of sCD4 [4] | IC50 (neutralization) in the absence of sCD4 [5] | IC50 (neutralization) in the presence of sCD4 [5] | IC50 (neutralization) [6] | IC50 (neutralization) [1] | IC50 (neutralization) [7] | IC50 (neutralization) [8] | IC50 (neutralization) [9] | IC50 (neutralization) [2]
1 | F105 (antibody) | > 25 µg/mL | > 25 µg/mL | > 25 µg/mL | > 25 µg/mL | – | – | – | – | – | – | – | – | – | – | – | –
2 | ED49 (antibody) | > 25 µg/mL | 5.4 µg/mL | > 25 µg/mL | 12 µg/mL | > 25 µg/mL | 2.4 µg/mL | > 25 µg/mL | 3.3 µg/mL | > 25 µg/mL | 3 µg/mL | – | – | – | – | – | –
3 | 2G12 (antibody) | > 25 µg/mL | > 25 µg/mL | > 25 µg/mL | > 25 µg/mL | – | – | – | – | – | – | – | – | – | – | – | –
4 | 2F5 (antibody) | > 25 µg/mL | > 25 µg/mL | > 25 µg/mL | > 25 µg/mL | – | – | – | – | – | – | 25 µg/mL | > 50 µg/mL | < 0.1 µg/mL | – | – | –
5 | E51 (antibody) | > 25 µg/mL | > 25 µg/mL | > 25 µg/mL | 13 µg/mL | > 25 µg/mL | 4 µg/mL | > 25 µg/mL | 22 µg/mL | > 25 µg/mL | > 25 µg/mL | – | – | – | – | – | –
6 | X5 (antibody) | > 25 µg/mL | > 25 µg/mL | > 25 µg/mL | > 25 µg/mL | > 25 µg/mL | 2.5 µg/mL | > 25 µg/mL | > 25 µg/mL | > 25 µg/mL | > 25 µg/mL | – | – | – | – | – | –
7 | A32 (antibody) | > 25 µg/mL | > 25 µg/mL | > 25 µg/mL | > 25 µg/mL | – | – | – | – | – | – | – | – | – | – | – | –
8 | b12 (antibody) | > 25 µg/mL | > 25 µg/mL | > 25 µg/mL | > 25 µg/mL | – | – | – | – | – | – | 3 µg/mL | > 50 µg/mL | – | – | – | –
9 | 4E10 (antibody) | – | – | – | – | – | – | – | – | – | – | 25 µg/mL | > 50 µg/mL | – | 0.1 µg/mL | 0.8 µg/mL | 1.2 µg/mL
10 | ED47 (antibody) | > 25 µg/mL | > 25 µg/mL | > 25 µg/mL | > 25 µg/mL | > 25 µg/mL | > 25 µg/mL | > 25 µg/mL | 4.7 µg/mL | > 25 µg/mL | > 25 µg/mL | – | – | – | – | – | –
